From US20250163186A1 (PHYLAXIS BIOSCIENCE, published 2025)
Where a chain is given by its changes, count along the chain named. In names and notes the source's numbering stands. Like-named read-outs stand apart in the source and are kept apart here.

Columns and labels:
[1] = molecular target: T1, CH2-4 constant domains of human IgE linked to a transmembrane protein, on 293 cells (human, UniProt P01854-1 104-428); test: flow cytometry, 293 cells expressing human IgE CH2-4
T1 construct: domain: CH2-4 constant domains; also called human IgE-expressing 293 cells
T1 sequence (P01854 other isoform, or with tags, fused parts or gaps): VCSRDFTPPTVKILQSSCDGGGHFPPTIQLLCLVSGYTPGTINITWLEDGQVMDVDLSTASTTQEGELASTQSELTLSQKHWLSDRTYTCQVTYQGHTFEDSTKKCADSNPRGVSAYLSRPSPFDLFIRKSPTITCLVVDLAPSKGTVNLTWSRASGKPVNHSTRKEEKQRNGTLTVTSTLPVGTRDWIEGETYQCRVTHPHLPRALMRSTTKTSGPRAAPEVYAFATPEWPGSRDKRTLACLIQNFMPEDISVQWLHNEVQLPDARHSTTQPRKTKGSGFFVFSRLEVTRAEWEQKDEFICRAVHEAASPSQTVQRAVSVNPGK
Protocol: (§1) First, 25 μg of DNA was added to Opti-MEM Reduced Serum Medium (Gibco) mixed with 75 μL of 40 kDa Polyethylenimine (PEI) for a final concentration of 1 μg DNA and 2.5 μg PEI per mL of culture volume. The plasmid DNA was allowed to pre-complex with PEI for 15 minutes before transferring the mixture to 25 mL of 293 cells in a shake flask at a density of 2×10⁶ cells/mL. […] Next, 50 μL of cells were transferred to wells of a round-bottom 96-well assay plate for a total of 50,000 293 cells per well. In a separate 96-well plate, monomeric VHH-hIgG1-Fc fusion proteins were titrated 1:5 in a 8-point dilution series starting at 1 μM in FACS Buffer with the 8th point containing no antibody. 50 μL from each antibody dilution was added to wells containing 50 μL of FACS Buffer with transfected 293 cells which produced a 2-fold dilution of the antibody concentrations from the dilution series resulting in a 500 nM final, starting concentration of the test article titration. The test articles and 293 cells were incubated together at 4° C. for 30 minutes. Next, the 96-well plates were centrifuged at 400×g for 5 minutes and the FACS buffer containing unbound antibody was decanted. Cells were washed 1× with 150 μL 4° C. FACS Buffer. […] The cells were incubated with the fluorophore conjugated detection antibody at 4° C. for 20 minutes. 293 cells were then centrifuged and washed once as described above. Cell pellets were resuspended in 30 μL FACS Buffer and analyzed on an iQue Screener Plus flow cytometer (Sartorius, IntelliCyt) with a 1 second sip time and 1 second void time. Mean fluorescent intensity was calculated using iQue onboard software gating on GFP+ or citrine+ cells.

[2] = molecular target: T1, CH2-4 constant domains of human IgE …; test: as above; remark: listed apart in the source
[3] = molecular target: T1, CH2-4 constant domains of human IgE …; test: as above; remark: listed apart in the source
Protocol: as §1

[4] = molecular target: T1, CH2-4 constant domains of human IgE …; test: as above; remark: listed apart in the source
Protocol: as §1

[5] = molecular target: T1, CH2-4 constant domains of human IgE …; test: as above; remark: listed apart in the source
Protocol: as §1

human IgE [6] = molecular target: T2, human IgE (human, UniProt P01854 1-428); test: ELISA, plate-coated IgE
T2 construct: written under the same molecule; also called IgE (Abcam ab65866); soluble IgE
T2 sequence (P01854 other isoform, or with tags, fused parts or gaps limits assumed, form in doubt): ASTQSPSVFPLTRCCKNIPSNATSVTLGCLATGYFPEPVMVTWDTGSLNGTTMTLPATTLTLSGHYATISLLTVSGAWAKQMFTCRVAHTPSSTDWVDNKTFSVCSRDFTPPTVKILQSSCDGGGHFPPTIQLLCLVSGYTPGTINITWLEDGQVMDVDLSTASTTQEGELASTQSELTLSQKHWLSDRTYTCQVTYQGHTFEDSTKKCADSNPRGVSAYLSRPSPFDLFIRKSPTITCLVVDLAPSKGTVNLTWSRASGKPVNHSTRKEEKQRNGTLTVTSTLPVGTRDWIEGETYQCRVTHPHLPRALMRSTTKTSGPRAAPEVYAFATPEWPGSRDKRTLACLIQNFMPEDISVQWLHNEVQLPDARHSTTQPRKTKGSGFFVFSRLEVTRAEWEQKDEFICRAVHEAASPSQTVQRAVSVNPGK

[7] = molecular target: T3, recombinant human FCER1A-His (ACRO FCA-H5228) (human, UniProt P12319 26-205); test: SPR, antibody alone injected over captured FCER1A
T3 construct: Bought protein; also called FceRIA; IgE receptor
T3 sequence: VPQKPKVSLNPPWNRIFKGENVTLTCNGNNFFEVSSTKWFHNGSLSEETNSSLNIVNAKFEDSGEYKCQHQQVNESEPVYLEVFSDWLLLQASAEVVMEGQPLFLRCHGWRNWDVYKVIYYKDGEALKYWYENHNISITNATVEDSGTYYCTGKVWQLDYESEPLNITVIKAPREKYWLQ
Protocol: (§2) All experiments were done using a Biacore T200 instrument with a CM5 chip at 25° C., Flow Cell (FC) 1 was used as the reference for FC2, and FC3 for FC4.
(§3) Anti-His antibody (1 mg/ml stock) was diluted (1:100 dilution, 0.01 mg/ml diluted concentration) in 10 mM sodium acetate buffer at pH 4.5 and immobilized onto FCs 1 and 2 to a level of ˜14000 RU, using the standard amine coupling chemistry. […] FCER1A (0.4 mg/ml stock concentration) was diluted ([…], ˜0.004 mg/ml diluted concentration) in PBS-P captured onto FC2 to levels of ˜130 RU. PBS-P was used as the capture running buffer. Overnight kinetics were performed for all analytes in the presence of PBS-P. The flow rate of all analyte solutions was maintained at 50 μL/min. The contact and dissociation times used were 120 seconds and 300 seconds, respectively. Glycine pH 1.5 was injected for 20 seconds for surface regeneration. This regeneration condition takes away all captured FCER1A. Therefore, fresh FCER1A was captured in the beginning of each injection cycle. […] All analytes were injected in duplicate. […] Sensorgrams from the overnight kinetics were plotted for further evaluation.

human IgE [8] = molecular target: T2, human IgE; test: SPR, blocks binding of 5 nM IgE to captured FCER1A
Protocol: as §2, §3

human IgE [9] = molecular target: T2, human IgE; test: SPR (Biacore T200, 25 C), IgE captured on protein L, antibody as analyte, 1:1 fit
Protocol: as §2
Protein L (15 mg/mL) was diluted (1:50 dilution, 0.3 mg/mL diluted concentration) in 10 mM sodium acetate buffer at pH 4.5 and immobilized onto FCs 1 and 2 to a level of ˜13000 RU, using the standard amine coupling chemistry. […] PBS-P was used as the capture running buffer. Overnight kinetics were performed for all analytes in the presence of PBS-P. The flow rate of all analyte solutions was maintained at 50 μL/min. The contact and dissociation times used were 120 seconds and 600 seconds, respectively. Glycine pH 2.0 was injected for 20 seconds for surface regeneration. This regeneration condition takes away all captured ligand. Therefore, fresh ligand solution was captured in the beginning of each injection cycle. Injected analyte concentrations are from 50 nM to 0.098 nM (two-fold dilutions). All analytes were injected in duplicate. Sensorgrams from the overnight kinetics were evaluated by using 1:1 kinetics model fitting.

human IgE [10] = molecular target: T2, human IgE; test: ELISA, plate-coated IgE, apparent Kd (one site fit)
Source text: The data was plotted and analyzed using GraphPad Prism analysis software.

B1: B10-NNT (Fc fusion)
VHH-Fc: EVQLVQSGGELVQAGGSLRLSCVASGLTFSSYNMGWLRQAPGKEREFVGMSGSSSTSTYYADSVKGRFTISRDNSKNTVYLQMNSLKPEDTAVYYCAARRMLSTYWSDRSWDFWGQGTQVTVKPGGPSVFLFPPKPKDTLMISRTPEVTCVVVDVSHEDPEVKFNWYVDGVEVHNAKTKPREEQYNSTYRVVSVLTVLHQDWLNGKEYKCKVSNKALPAPIEKTISKAKGQPREPQVYTLPPSRDELTKNQVNLTCLVKGFYPSDIAVEWESNGQPENNYKTTPPVLDSDGSFFLNSTLTVDKSRWQQGNVFSCSVMHEALHNHYTQKSLSLSPGK
notes: monomeric; also called parental B10 monomeric VHH-hIgG1-Fc fusion (Fc NNT)
Kd [1]: 1.82 nM | Bmax [2]: 1.36e+06 MFI | Kd [2]: 1.82 nM | Bmax [3]: 2.04e+06 MFI | Kd [3]: 0.872 nM | Bmax [4]: 866000 MFI | Kd [4]: 0.461 nM | Bmax [5]: 1.17e+06 MFI | Kd [5]: 1.3 nM

B2: hzB10v14-IgG1 DSELF Fc region (cx12739) (Fc fusion)
chain: EVQLLESGGGEVQPGGSLRLSCVASGLTFSSYNMGWLRQAPGKEREFVGLSGSSSTSTYYADSVKGRFTISRDNSKNTVYLQMNSLKPEDTAVYYCAARRLLSTYWSDRSWDFWGQGTQVTVEPGGGGDKTHTCPPCPAPELLDGPSVFLFPPKPKDTLMISRTPEVTCVVVDVEHEDPEVKFNWYVDGVEVHNAKTKPREEQYNSTYRVVSVLTVLHQDWLNGKEYKCKVSNKAFPAPIEKTISKAKGQPREPQVYTLPPSREEMTKNQVSLTCLVKGFYPSDIAVEWESNGQPENNYKTTPPVLDSDGSFFLYSKLTVDKSRWQQGNVFSCSVMHEALHNHYTQKSLSLSPGK
notes: hzB10v14 VHH + GGGG linker + human IgG1 Fc with G236D/S267E/L328F; the Fc drives homodimer formation (bivalent); also called hzB10v14-DSELF; hzB10v14-IgG DSELF Fc
Bmax (OD 650 nm) (human IgE [6]): 0.742 OD 650 nm | binding result [7]: no binding (tested: 200 nM) | IC50 (human IgE [8]): ~2.4 nM | Kd (human IgE [9]): 0.8 nM | koff (human IgE [9]): 0.000288 s⁻¹ | kon (human IgE [9]): 359000 M⁻¹ s⁻¹ | Kd (human IgE [10]): 0.197 nM

B3: hzB10v30-NNT (Fc fusion)
VHH-Fc: EVQLLESGGGEVQPGGSLRLSCVASGLTFSSYNMGWLRQAPGKEREFVGLSGSSSTSTYYAESVKGRFTISRDNSKNTVYLQMTSLRAEDTAVYYCAARRLLSTYWSDRSWDFWGQGTQVTVEPGGPSVFLFPPKPKDTLMISRTPEVTCVVVDVSHEDPEVKFNWYVDGVEVHNAKTKPREEQYNSTYRVVSVLTVLHQDWLNGKEYKCKVSNKALPAPIEKTISKAKGQPREPQVYTLPPSRDELTKNQVNLTCLVKGFYPSDIAVEWESNGQPENNYKTTPPVLDSDGSFFLNSTLTVDKSRWQQGNVFSCSVMHEALHNHYTQKSLSLSPGK
notes: monomeric
Kd [3]: 1.69 nM | Bmax [4]: 725000 MFI | Kd [4]: 1.63 nM

B4: hzB10v39-NNT (Fc fusion)
VHH-Fc: B3 VHH-Fc with Q119L
notes: monomeric
Kd [3]: 1.37 nM

B5: hzB10v37-NNT (Fc fusion)
VHH-Fc: B3 VHH-Fc with R87K, Q119L
notes: monomeric
Bmax [3]: 1.9e+06 MFI | Kd [3]: 1.51 nM

B6: hzB10v38-NNT (Fc fusion)
VHH-Fc: B3 VHH-Fc with A88P, Q119L
notes: monomeric
Bmax [3]: 2.02e+06 MFI | Kd [3]: 0.98 nM

B7: hzB10v44-NNT (Fc fusion)
VHH-Fc: B3 VHH-Fc with S75T, Q119L
notes: monomeric
Bmax [5]: 1.38e+06 MFI | Kd [5]: 2.37 nM
